According to patent US20240209093A1 (I MAB BIOPHARMA, published 2024):

T1: His-tagged human TIGIT-ECD protein (human, UniProt Q495A1 22-141)
T1 construct: extracellular domain; also called hTIGIT-his
T1 sequence (looked up): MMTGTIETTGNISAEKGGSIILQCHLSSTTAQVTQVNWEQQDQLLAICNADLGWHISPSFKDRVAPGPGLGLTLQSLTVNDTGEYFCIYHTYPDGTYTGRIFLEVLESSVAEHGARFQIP


Experiments:
[1] = target: T2, Tag1-CD47 (UniProt Q08722 19-139); assay: HTRF CD47/SIRPα binding assay (Cisbio): blocking of Tag2-SIRPa binding to Tag1-CD47; axis numbers -3 to 3 read as log10 of nM
T2 construct: Bought kit reagent
Source text: Fluorescence data were read on a PerkinElmer Envision plate reader using laser as light source.

[2] = target: T3, human PD-L1-his (human, UniProt Q9NZQ7 19-238); assay: SPR, Biacore, full kinetics, antigen 100-1.5625 nM
T3 construct: also called hPD-L1-his; human His-PD-L1

[3] = target: T3, human PD-L1-his; assay: SPR, Biacore T200
[4] = target: T1, His-tagged human TIGIT-ECD protein; assay: ELISA on His-tagged human TIGIT
[5] = target: T1, His-tagged human TIGIT-ECD protein; assay: SPR, Biacore T200, antibody captured on protein A chip, hTIGIT-his 0.78-12.5 nM as analyte
Source text: The antibodies were captured by Protein A chip. […] The association phase was 180 s and the dissociation phase was 1200 s.

[6] = target: T3, human PD-L1-his; assay: SPR, Biacore T200, antibody captured on protein A chip, hPD-L1-his 6.25-100 nM as analyte
Experimental: The binding affinity of the PD-L1/TIGIT bsAb to recombinant human his-tagged PD-L1 protein was tested by BIACORE®. […] A series of dilutions of human PD-L1 protein (6.25 nM-100 nM) were injected over captured antibody at a flow rate of 10 μL/min. The antigen was allowed to associate for 180 s and dissociate for 1200 s. All the experiments were carried out on a Biacore T200. Data analysis was carried out using Biacore T200 evaluation software.

[7] = target: T3, human PD-L1-his; assay: ELISA, plate coated with human His-PD-L1, detection goat anti-human IgG Fc HRP [panel A]
Source text: Binding of the anti-PD-L1/TIGIT bsAb molecules with human PD-L1 was further analyzed by ELISA.

T3 sequence (Q9NZQ7 19-238 limits assumed): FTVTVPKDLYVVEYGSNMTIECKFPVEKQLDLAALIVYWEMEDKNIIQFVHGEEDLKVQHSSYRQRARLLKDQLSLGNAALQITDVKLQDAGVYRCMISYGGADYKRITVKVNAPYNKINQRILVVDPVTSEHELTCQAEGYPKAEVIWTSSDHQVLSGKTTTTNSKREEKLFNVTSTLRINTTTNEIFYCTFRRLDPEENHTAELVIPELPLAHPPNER
T2 sequence (Q08722 19-139 limits assumed): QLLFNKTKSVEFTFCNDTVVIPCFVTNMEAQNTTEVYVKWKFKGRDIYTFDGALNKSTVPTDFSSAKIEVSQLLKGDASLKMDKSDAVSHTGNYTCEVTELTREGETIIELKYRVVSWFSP

Kd [2] [nM]	koff [2] [s⁻¹]	kon [2] [M⁻¹ s⁻¹]	Binder	further results
–	–	–	34C5 (antibody, V domains shown, also called anti-CD47 antibody 34C5; parental CD47 antibody 34C5) VH: QVQLVQSGAEVKKPGSSVKVSCKASGYTFSSYYMHWVRQAPGQGLEWMGEINPNNARINFNEKFKTRVTLTVDKSTSTAYMELSSLRSEDTAVYYCTRGYYRYGAWFGYWGQGTLVTVSS VL: DIQMTQSPSSLSASVGDRVTITCRASQDISDYLNWYQQKPGKAPKLLIYYISRLHSGVPSRFSGSGSGTDYTLTISSLQPEDFATYYCQQGHTLPWTFGGGTKVEIK	IC50 (read off the curve) [1]: ~0.7 nM
–	–	–	13H3 (antibody, V domains shown, also called anti-CD47 antibody 13H3; parental CD47 antibody 13H3) VH: EVQLVESGGGLVKPGGSLRLSCAASGLTFERAWMNWVRQAPGKGLEWVGRIKRKTDGETTDYAAPVKGRFSISRDDSKNTLYLQMNSLKTEDTAVYYCAGSNRAFDIWGQGTMVTVSS VL: DIVMTQSPDSLAVSLGERATINCKSSQSVLYAGNNRNYLAWYQQKPGQPPKLLINQASTRASGVPDRFSGSGSGTEFTLIISSLQAEDVAIYYCQQYYTPPLAFGGGTKLEIK	IC50 (read off the curve) [1]: ~1 nM
0.559	0.000107	192000	ALP-Tan-3p-93 (chimeric) (antibody, V domains shown, not shown: a dimerising Fc or GST; small tags and cut ends, Called chimeric; also called ALP-Tan-3p-93 chimeric antibody) VH: QVQLVESVGGLVQPGDSLRLSCLASGRTFTFRHYVMGWFRQAPGKEREFVAAISWSGSGSYYADSVKGRFTISRDNSKNMVFLQMNGLKPEDTAVYYCAADMTTRMSQASREYDYWGQGTQVTVSS	–
–	–	–	ALP-Tan-3p-93 (VHH) VHH: QVQLVESVGGLVQPGDSLRLSCLASGRTFTFRHYVMGWFRQAPGKEREFVAAISWSGSGSYYADSVKGRFTISRDNSKNMVFLQMNGLKPEDTAVYYCAADMTTRMSQASREYDYWGQGTQVTVSS	Kd [3]: 0.459 nM; koff [3]: 7.8e-05 s⁻¹; kon [3]: 154000 M⁻¹ s⁻¹
1.8	0.000239	133000	93-VH-8 (VHH, Humanized) VHH: EVQLVESGGGLVQPGGSLRLSCAASGRTFTFRHYVMGWFRQAPGKGLEFVAAISWSGSGSYYADSVKGRFTISRDNSKNTVYLQMNSLRAEDTAVYYCAADMTTRMSQASREYDYWGQGTLVTVSS	–
–	–	–	TIGIT antibody (antibody, V domains shown, Only variable domains are tied to the parental antibody; also called TIGIT Ab; parental TIGIT antibody) VH: EVKLVESGGGLVQPGGSLRLSCAASGFTFSDYYMYWVRQAPGKRLEWVASITKGGGSTYYPDTLKGRFTISRDNAKNSLYLQMNRLRAEDTAVYYCARQSSYDFVMDYWGQGTTVTVSS VL: DIVMTQSPSSLSASVGDRVTITCKASQDVDTAVAWYQQKPGKAPKLLIYWASARHTGVPSRFSGSGSGTDFTFTISSLQPEDIATYYCQQYSNYPLTFGQGTKLEIK	EC50 (read off the curve) [4]: ~0.2 nM; Kd [5]: 0.144 nM; koff [5]: 0.000172 s⁻¹; kon [5]: 1.19e+06 M⁻¹ s⁻¹
–	–	–	ASP-3P-46 (VHH, also called ASP-30-46) VHH: QVQLVESGGGLVQPGGSLRLSCAASARSINGMEWYRQAPGERRELVAGITAGGSAYYTDTVKGRFTISRDNAENTGYLQMNSLSPDDTAVYYCRRQYGPNWYWGQGTQVTVSS	Kd [3]: 1.81 nM; koff [3]: 0.00128 s⁻¹; kon [3]: 710000 M⁻¹ s⁻¹
–	–	–	TIGIT-Fc-93-VH6 (bispecific antibody, human IgG1, kappa, Two 93-VH6 fused to the C-termini of the anti-TIGIT heavy chains; also called TIGIT-Fc-PD-L1 format) heavy: not shown light: DIVMTQSPSSLSASVGDRVTITCKASQDVDTAVAWYQQKPGKAPKLLIYWASARHTGVPSRFSGSGSGTDFTFTISSLQPEDIATYYCQQYSNYPLTFGQGTKLEIKRTVAAPSVFIFPPSDEQLKSGTASVVCLLNNFYPREAKVQWKVDNALQSGNSQESVTEQDSKDSTYSLSSTLTLSKADYEKHKVYACEVTHQGLSSPVTKSFNRGEC	EC50 (read off the curve) [4]: ~0.5 nM; Kd [6]: 1.15 nM; koff [6]: 4.25e-05 s⁻¹; kon [6]: 37100 M⁻¹ s⁻¹; Kd [5]: 0.112 nM; koff [5]: 0.000139 s⁻¹; kon [5]: 1.24e+06 M⁻¹ s⁻¹; EC50 (read off the curve) [7]: ~2 nM
–	–	–	TIGIT-Fc-93-VH6*2 (bispecific antibody, human IgG1, kappa, Four 93-VH6, two in tandem at the C-terminus of each anti-TIGIT heavy chain; also called TIGIT-Fc-PD-93-VH6*2; TIGIT-Fc-PD-L1*2 format) heavy: not shown light: DIVMTQSPSSLSASVGDRVTITCKASQDVDTAVAWYQQKPGKAPKLLIYWASARHTGVPSRFSGSGSGTDFTFTISSLQPEDIATYYCQQYSNYPLTFGQGTKLEIKRTVAAPSVFIFPPSDEQLKSGTASVVCLLNNFYPREAKVQWKVDNALQSGNSQESVTEQDSKDSTYSLSSTLTLSKADYEKHKVYACEVTHQGLSSPVTKSFNRGEC	EC50 (read off the curve) [4]: ~0.6 nM; Kd [6]: 5.4 nM; koff [6]: 0.000118 s⁻¹; kon [6]: 21900 M⁻¹ s⁻¹; Kd [5]: 0.0912 nM; koff [5]: 0.000131 s⁻¹; kon [5]: 1.43e+06 M⁻¹ s⁻¹; EC50 (read off the curve) [7]: ~0.8 nM
26.3	0.00162	61500	93-VH-2 (VHH, Humanized) VHH: EVQLVESGGGLVQPGGSLRLSCAASGFTFTFRHYVMGWVRQAPGKEREWVSAISWSGSGSYYADSVKGRFTISRDNSKNTVYLQMNSLRAEDTAVYYCAADMTTRMSQASREYDYWGQGTLVTVSS	–
2.77	0.00125	452000	93-VH-5 (VHH, Humanized) VHH: EVQLVESGGGLVQPGGSLRLSCAASGFTFTFRHYVMGWFRQAPGKEREFVAAISWSGSGSYYADSVKGRFTISRDNSKNTLYLQMNSLRAEDTAVYYCAKDMTTRMSQASREYDYWGQGTLVTVSS	–
2.36	0.00115	486000	93-VH-3 (VHH, Humanized) VHH: EVQLVESGGGLVQPGGSLRLSCAASGFTFTFRHYVMGWFRQAPGKGLEFVAAISWSGSGSYYADSVKGRFTISRDNSKNTLYLQMNSLRAEDTAVYYCAKDMTTRMSQASREYDYWGQGTLVTVSS	–
2.2	0.00031	140000	93-VH-9 (VHH, Humanized) VHH: EVQLVESGGGLVQPGGSLRLSCAASGRTFTFRHYVMGWFRQAPGKGLEFVAAISWSGSGSYYADSVKGRFTISRDNSKNTLYLQMNSLRAEDTAVYYCAADMTTRMSQASREYDYWGQGTLVTVSS	–
3.87	0.000339	87600	93-VH-7 (VHH, Humanized) VHH: EVQLVESGGGLVQPGGSLRLSCAASGFTFTFRHYVMGWFRQAPGKGLEFVAAISWSGSGSYYADSVKGRFTISRDNSKNTLYLQMNSLRAEDTAVYYCAADMTTRMSQASREYDYWGQGTLVTVSS	–
1.82	0.000147	80500	93-VH-4 (VHH, Humanized) VHH: EVQLVESGGGLVQPGGSLRLSCAASGFTFTFRHYVMGWFRQAPGKGLEFVAAISWSGSGSYYADSVKGRFTISRDNSKNTVYLQMNSLRAEDTAVYYCAADMTTRMSQASREYDYWGQGTLVTVSS	–
0.92	0.00149	1.62e+06	112-VHH5-PTM (VHH, Humanized) VHH: EVQLVESGGGLVQPGGSLRLSCAASGSIFSSGTQFSDSKIDWYRQAPGKQRDWVAGIFSTGSTIYEDSVKGRFAISRDNAKNSLYLQMNSLRAEDTAVYYCRVIGRGILAWGQGTLVTVSS	–
–	–	–	ALP-Tan-3p-112 (VHH) VHH: QVQLVESGGGLVQPGGSLRLSCAASGSIFSSGTNFSDSKIDWYRQAPGKQRDWIAGIFSTGSTIYEDSVKGRFAISRDNAKNMGYLQMNSLKPEDTAVYYCRVIGRGILAWGQGTQVTVSS	Kd [3]: 0.479 nM; koff [3]: 0.000235 s⁻¹; kon [3]: 490000 M⁻¹ s⁻¹
2.4	0.00498	2.07e+06	112-VHH3-PTM (VHH, Humanized) VHH: EVQLVESGGGLVQPGGSLRLSCAASGSIFSSGTQFSDSKIDWYRQAPGKQREWVSGIFSTGSTIYEDSVKGRFTISRDNAKNSLYLQMNSLRAEDTAVYYCRVIGRGILAWGQGTLVTVSS	–
2.32	0.00393	1.69e+06	112-VHH7-PTM (VHH, Humanized) VHH: EVQLVESGGGLVQPGGSLRLSCAASGSIFSSGTQFSDSKIDWYRQAPGKQREWIAGIFSTGSTIYEDSVKGRFAISRDNAKNMLYLQMNSLRAEDTAVYYCRVIGRGILAWGQGTLVTVSS	–
0.264	0.000566	2.14e+06	ALP-Tan-3p-112 (chimeric) (antibody, V domains shown, not shown: a dimerising Fc or GST; small tags and cut ends, Called chimeric) VH: QVQLVESGGGLVQPGGSLRLSCAASGSIFSSGTNFSDSKIDWYRQAPGKQRDWIAGIFSTGSTIYEDSVKGRFAISRDNAKNMGYLQMNSLKPEDTAVYYCRVIGRGILAWGQGTQVTVSS	–
